From a protein production outcome set (Wang et al. 2014) come the findings set out here.

A short description of the data set: label from the status in PepcDB records.

On to “MTRFNRFRRTLMQWTGSLPLLGALPLSKLAQAQGAEQPAASGTPPAGGTRAPRFAYVGTYTFDAPGGTAGGPPARGIYVLAPRGDAWSQAQVVESANPSFLAVHPNQRCLYAINEIDVYEGRATGTAEAYAIDPRDGRLTLLNRQPLSLSGTIPAHVAVSPDGQHLAVALYGGGAYNVLPIGADGRLGSVSGLFKDTGSGPDTARQEAPHAHMVLFDPTGRHILGTDLGTDRINVFALEDGKLTPRDRAQLKPGGGPRHLALHPSGKLLYVISELDSTVACHGYDPATGRVLDERQRIATTPADYTGQKSGAALVMHPSGRFLYASNRRLKSEHPLADSIAAFSIDPASGRLAALQYWSEGLRFPRALTMADDGRHLYALSQKGDTILRLRIDDATGRLDQPAVVSNVPTPVCLVFAG”, for which the protein production result is “failed”.

With “MTRIASHRGGTLEFGDSTPHGFTATAAMALEEVEFDLHPTADGAIVVHHDPTLDATTDMTGAIVDMTLAKVKTATIRYGAGSHPMTLEELCALYVDSHVNFRCEIKPGVDGLPYEGFVALVIAGLERHSMLERTTFSSFLLASMDELWKATTRPRLWLVSPSVLQQLGPGAVIETAIAHSIHEIGVHIDTADAGLMAQVQAAGLDFGCWAAHTPSQITKALDLGVKVFTTDRPTLAIALRTEHRMEASV”, the protein production result was “not failed”.

In the case of “MTRIIPFALAVAALATAGAAQASTMVIGGGAAKECSDSALKGRSDKRSVLACTSALELENLNFRDRARTYVNRGVLQMRQKDFGAARSDFDAAGAIDPNLGEVFVNRGAAYVGEERYREGVEQIDKGLALGVKEPEKAWFNRGLANEGLGDLKAAFRDYSRAAELNPDWPAPKLELTRFSVKRP”, the protein production entry is recorded as “failed”.

On to “MTRNDSGDLISRNDSTNHMNTTQPQKMLPEATFSDRMLEIGIKYKKQLTALVVVICLAAGGTLFWMQKTKVDEVQASLALAKITPWIEMGDVNKAVNGEGSIKGLNSIIKTWGGTPSGKTARLYMAYILLNSGKPDDALSIYKGFSSDNKDLQASALAGAAACHVQKKAFAEAAPEYEKASETAENETLKSMYLTKAAESYSAAGQADKAAKLYDQVIKTWPATSSAGMAQRALLRLAGAGVQIPQI”, for which the protein production entry is “failed”.

For “MTRPERAPLSASARIEVPFHDVDAMAVCWHGHYLKYFEIGRAALLRAFDYDYPEMRASGYLWPVVEAHLKYIRPATYGQRIEVRATLIEYENRLKIGYEIADCASGQRLTKGHTIQVAVCAATSELQFVSPAVVFEKVERAWADLEHHHHHH”, the protein production result is “failed”.

Turning to “MTRPQAAAEDARNAMVAGLLASGISVNGLQPSHNPQVAAQMFTTATRLDPKMCDAWLARLLAGDQSIEVLAGAWAAVRTFGWETRRLGVTDLQFRPEVSDGLFLRLAITSVDSLACAYAAVLAEAKRYQEAAELLDATDPRHPFDAELVSYVRGVLYFRTKRWPDVLAQFPEATQWRHPELKAAGAAMATTALASLGVFEEAFRRAQEAIEGDRVPGAANIALYTQGMCLRHVGREEEAVELLRRVYSRDAKFTPAREALDNPNFRLILTDPETIEARTDPWDPDSAPTRAQTEAARHAEMAAKYLAEGDAELNAMLGMEQAKKEIKLIKSTTKVNLARAKMGLPVPVTSRHTLLLGPPGTGKTSVARAFTKQLCGLTVLRKPLVVETSRTKLLGRYMADAEKNTEEMLEGALGGAVFFDEMHTLHEKGYSQGDPYGNAIINTLLLYMENHRDELVVFGAGYAKAMEKMLEVNQGLRRRFSTVIEFFSYTPQELIALTQLMGRENEDVITEEESQVLLPSYTKFYMEQSYSEDGDLIRGIDLLGNAGFVRNVVEKARDHRSFRLDDEDLDAVLASDLTEFSEDQLRRFKELTREDLAEGLRAAVAEKKTK”, the protein production result was “failed”.

Consider “MTRPTHPNALIWLLLSIAIIALDQATKAWVLTSLPEYIPVPVIHGFWNWYRSYNTGAAFSFLSDAGGWQMWLFIALALGISGLLTFWLSRTPRREWRSALPYALIIGGGIGNVIDRFLHGHVVDFIQWYVGSYYWPSFNLADSAIVAGAIGIGLLSLFDSKHSPKTP”, for which the protein production result is reported as “failed”.

Take “MTRQRIAIDMDEVLADTLGAVVKAVNERADLNIKMESLNGKKLKHMIPEHEGLVMDILKEPGFFRNLDVMPHAQEVVKQLNEHYDIYIATAAMDVPTSFHDKYEWLLEYFPFLDPQHFVFCGRKNIILADYLIDDNPKQLEIFEGKSIMFTASHNVYEHRFERVSGWRDVKNYFNSIEK”: the protein production result was “failed”.

Turning to “MTRRALFGPKVAPLIQAASLTLALLLFLAACGPKGSYENVGPEELYEALAAGALVVDVRTPGEFAQGHVPGAINLPVEEVARWADRIPKDRPVYLYCRSGNRSRKAAEYLARKGYTNLYNVEGGVLAIARAGYPLVR”, the protein production result is on record as “failed”.

Consider “MTRRGAQKASPSRAPGETALSTLYVTHPSAVEHVVPTGHPERPARMQAVERALEDERFAALVRCHAPRAEASVAELVHPASYVETIVAASPDEGFFQIDGDTLMSPGSLNTCLHAIGGSNHAVDAVMKGECANAFVAMRPPGHHAERDRAMGFCLFNHAAIAVRHAQKAFGATRVALVDFDVHHGNGSQDIFWADKTVMYASTHQMPLFPGSGATGERGDHDTIVNAPLKAFDGSELFREAFEARILPRLDAFAPDLIVISAGFDAHKLDPLANIQLDEADFGWATRRLMEVADRHAGGRVVSILEGGYSLDGLARSVAAHMDALMGR”, for which the protein production result is reported as “failed”.

Consider “MTRRLVLMLALLSGSAGASGSFFTLLQTWQGLGHAPIAVSPDGRLLALTRPAPRTPAYAPYDTRIEVRDTAKMRRLYRVPAANGDGKTLLFSPDSRTLWSAHSGTLHYDAWTGKLADNREGSDGAGVSALAFAPGGQSYVLAGVNAVGQTRLVRVGVSPLRSFWPVTRPTAGDGMQPNWTSALAFSPDGRWVASGSVGGGVILRSSVTGRPLRVLADEPGQAPHRARLVDLLFLSPARLLSASADGQVRLWDAATGRALASLPCGERLGAVVQLPGGTRVVAATSRGLQLIETSGGRLRRLETVGGDYADVGVSAAGELWAITRGGTLSHWRLLSR”, for which the protein production entry was “failed”.

Regarding “MTRRRKILTGVLALVVLAAGGLAAARALGPGGTRVTAYFDRAIGVYAGSDLRILGVRVGEVESVDPEGTRVRVGLRLDDGIKVPEDARAVVVAPSVVADRYVQLTPAYRTGPALADGAVLPASRNHVPVEIDQIYDSITELGDALGPDGANADGALSELLRTGADNLDGNGEAIGDGVEQFGKAAKTLDGSSGDLFETLSSLQTFTTMLKNKDTDVRTAQERLDEVVSFFADNKDDLTGALEELGKALGQVKTFIEDNRGELKKNVDRLVPITRTLVEQRASLAEALDVAPLAADNVVNAYNPDTRTLDGRANLNEISSGGPLLPLPVAGTEKGEGRLEHHHHHH”, the protein production result is “not failed”.

With “MTRRVIALAGGATFKDIVRTMETQLISALPVIDSGSHVIGVVSEADVLRKEEFRDSDQLRGPRSRPPGALVKARAVTAEDLMTAPAVTVHPKAPVARAARLMARRRVKRLPVVDDEGVLQGIVSRADLLRVFLRSDPDIAEEVRREIVGGRFPEGLGSVRVEVHEGVVTLTGRVPDTSLVPLAERLVRSVEGVVDVRCVLTGPRHRMTGESEKAGAAAHRPGP”, the protein production result is on record as “failed”.

For the sequence “MTRTMSFHKNCELCTTAGGEILWQDALCRVVHVENQDYPGFCRVILNRHVKEMSDLRPAERDHLMLVVFAVEEAVREVMRPDKINLASLGNMTPHVHWHVIPRFKRDRHFPNSVWGETKRESLPQALDQGSTTALKKAISVRLDQGEPVFMGM”, the protein production result is “not failed”.

With “MTRTSKIAVIGGGMAGLAAAAGFDDAGFVVELYERQSYDSKRVNCGEAMTAVSKIPLEPTVENGFLNPLPAMEVEVYDGIDADRHRTGAGTFPAADTYITDRNVVEQSWAEQLSEKGVDIHENQSITRTDFHEFTDEYDLVVDATGQPSLSSKALGTTNEYSGYMVALNSDVEGDFTELYPNSRIILENYTGYSWAFPKTSQRANVGIGWTVSDRPSDYMKALREACKRNGWPVPSQERTNVAIIPEGPSLDPDRTYLPEHSVVRVGDAAGIANRLTGKGISQAVESGFLAAELANSGQLHNFPDSLYQRMKTEYIFATVVRYFLETRNPKVLGAAIRAAAGIDIEDVDRSPSTVLLRLLRHPVLFARIFSRRRVLNRVYGGMTNQWELIN”, the protein production result is listed as “failed”.

On to “MTRVQANMLLLLAAAIWGGGFVAQSSAMSSIGPFWFVGLRFAIAAIAVLPFALMETRSLKSPPRRREIGSFILVGLALFGGATTQQVGLLTTTVTNSSFLTGLYVIFVPVIAVVLYRRHPHWVVWPCALMMLGGIFLLSGGAFETLTTGDILSIICAFFWAIQITLAGRFVSESGRPLALSFTQFAVCSLLSCMIGVVFEPISMAAIEASMMEILYVGLVSSGLAFVLQVIGQRYTTAPQAAIFLSSEALFGALMASIFLKETISSAGYVGCLIIFVAILIVELVPELTRKRQKTVAEAS”, for which the protein production result is given as “failed”.

As to “MTRYALLVRGINVGGKNKVVMAELRQELTNLGLEKVESYINSGNIFFTSIDSKAQLVEKLETFFAVHYPFIQSFSLLSLEDFEAELENLPAWWSRDLARKDFLFYTEGLDVDQVIATVESLELKDEVLYFGKLGIF”, the protein production entry was “failed”.

As for “MTSAAMATAYFDKGNQCAARCDWLGAIEAFDHCLSLNPRDWQALANRGNAKVQREDLSGALEDYLAAAALNPSSCNIKSNLAVLLKELGELDLAAALLEEVLAAEPAHVDAWSNLGIVRQHQRRYQDAIACQQNALAIAGPSVARYSNLGNAYSCALMLDAAIEVQRKGLELAPDDANLQFNQSITLLTAGRYAEAWPLYEARWRSVLRPRLTQKRWQGEALGERTLLLWSEQGLGDSLQMVRLLSCLRRAHPQARLLLACPVSFHRLFAQFDGVSLLPADALPEHDCQLPLMSLPWLLGITLDNLPTEPYLRVPGGMVPPLPAASRRRVGVVWESGLWGVGVADLGRQHKSIPAGLFAEICRVPGIEFIALQPGGVPAELSDWVRACPISDFADTAALAAQMDLVICVDTAILHLAGAMGRPVWALLRAESAPFFLADAETAPWYPSVKLWRQPAPGAWEPMLKQIAEALAGRQTF”, the protein production result was “failed”.

For “MTSASAPSFNPGKGPGSAVGIALLGFGTVGTEVMRLMTEYGDELAHRIGGPLEVRGIAVSDISKPREGVAPELLTEDAFALIEREDVDIVVEVIGGIEYPREVVLAALKAGKSVVTANKALVAAHSAELADAAEAANVDLYFEAAVAGAIPVVGPLRRSLAGDQIQSVMGIVNGTTNFILDAMDSTGADYADSLAEATRLGYAEADPTADVEGHDAASKAAILASIAFHTRVTADDVYCEGISNISAADIEAAQQAGHTIKLLAICEKFTNKEGKSAISARVHPTLLPVSHPLASVNKSFNAIFVEAEAAGRLMFYGNGAGGAPTASAVLGDVVGAARNKVHGGRAPGESTYANLPIADFGETTTRYHLDMDVEDRVGVLAELASLFSEQGISLRTIRQEERDDDARLIVVTHSALESDLSRTVELLKAKPVVKAINSVIRLERD”, the protein production result is “failed”.

Regarding “MTSETNIRTLVVDDSDFFAEMTADTLTQQHDIESVAANSAAEALERLEGGGFDCVVSDYEMPEMDGLELLEAIRETNPSIPFILLTGRGDEETASAAIAAGVADYLLKLEVVEDKQYGRLANRIENVVSQERTRKKFESLVSDSPDGIVHLTTNGTILSVNPSMAGRLGADPDTLVGQQLSAVMDSEAANQRLEAGKSAVENGTATRSEDAVGGRHYHNQYIPVDSHRKSDTFQLVSRDITERVERQRELERQNDRLEEFASVVSHDLRNPLNVAQGAVDLLGEPADSKEAELVAKIDRSLDRMGCIIEDVLTLARQGQTVSDPQETELSTLASTAWTWIEAEQASMSVASSTKLAADSGRAQDLLANLFRNAIEHNDGDVEIEIGLLESNDGFYIADNGEGVEGDAEDVFEMGYSSTKDGTGFGLAIVEQVAEAHGWEVSLTESDSGGARFEVSSVELHD”, the protein production result was “failed”.

With “MTSFAQLDIKSEELAIVKTILQQLVPDYTVWAFGSRVKGKAKKYSDLDLAIISEEPLDFLARDRLKEAFSESDLPWRVDLLDWATTSEDFREIIRKVYVVIQEKEKTVEKPTAL”, the protein production result is listed as “not failed”.
